# According to the RNAGym collection of RNA variant scans (doi:10.7554/elife.80360):
# B1: CPEB3 Ribozyme (parent)
# chain: GGGGGCCACAGCAGAAGCGUUCACGUCGCGGCCCCUGUCAGAUUCUGGUGAAUCUGCGAAUUCUGCUGU
# Variants of: B1
# Assay: self-cleavage, relative activity (ratio to wild type); higher = more cleavage; co-transcriptional
row,Variant,self-cleavage
1,U20C A42U,0.271
2,U20C A42C,0.199
3,U20C U61G,0.226
4,G19C C27A,0.135
5,U20C C24A,0.191
6,U20C C24G,0.146
7,U20C C24U,0.18
8,U20C C54A,0.156
9,G19C C32G,0.207
10,U20G C57G,0.181
11,U20G C57A,0.124
12,G19C G25A,0.101
13,G19C G25U,0.145
14,U20C C66G,0.179
15,G19A C45U,0.167
16,G19A C45A,0.121
17,G19A U61G,0.164
18,U21A C22U,0.325
19,U20G C63A,0.157
20,G19C G58A,0.162
21,G19U U69G,0.819
22,U20C U44C,0.123
23,U20C U44G,0.149
24,G19A U44C,0.16

row,Variant,self-cleavage
1,U20C U69G,0.394
2,U20A U43A,0.152
3,G19C G30U,0.157
4,U20A G58C,0.164
5,U20C U53G,0.167
6,U20C U53A,0.135
7,U20G U21C,0.166
8,G19U U36C,0.212
9,G19U U36A,0.164
10,G19U G30C,0.186
11,U20G G50U,0.239
12,G19U G48A,0.673
13,G19U G48C,0.699
14,U21A G48C,1.01
15,U20G G25C,0.227
16,G19A U43C,0.116
17,G19A U43A,0.108
18,G19C A42U,0.173
19,G19C A42G,0.11
20,G19C A42C,0.153
21,G19A C22A,0.104
22,U20A G65A,0.156
23,G19U C27U,0.158
24,C18U U53A,0.632

row,Variant,self-cleavage
1,C18U U53G,0.633
2,G19U U38C,0.252
3,G19U C34G,0.232
4,G19U C34A,0.195
5,G19U C34U,0.545
6,U20C A52G,0.161
7,G19C A23G,0.11
8,G19U U55A,0.209
9,G19U U55G,0.127
10,G19C G56U,0.123
11,G19A A40G,0.17
12,U21A C27G,0.222
13,G19A C63U,0.116
14,G19A U69C,0.333
15,G19A U69G,0.249
16,U20C A23G,0.238
17,G19A G47A,0.122
18,G19A G47U,0.12
19,U20G U62C,0.244
20,U20G C24A,0.128
21,G19A U62C,0.231
22,C18U U49C,0.864
23,C18U U49A,0.914
24,G19C U44C,0.164

row,Variant,self-cleavage
1,U20G U26G,0.123
2,U20G U26A,0.163
3,G19C U67C,0.203
4,G19A G37A,0.142
5,G19A G37C,0.128
6,G19U C57A,0.224
7,U20G U64G,0.117
8,U20G U64A,0.152
9,G19U G28C,0.125
10,G19A A59U,0.169
11,G19A U36C,0.161
12,U20C G50A,0.174
13,U20C G50C,0.102
14,U21A C39A,0.911
15,U20G U38G,0.123
16,U20A C54A,0.125
17,U20G G68U,0.183
18,U20C U43A,0.227
19,U20C U43G,0.241
20,G19A G58A,0.132
21,U20A G37U,0.169
22,G19U C29U,0.117
23,G19C U69A,0.147
24,U21A C35G,0.198

row,Variant,self-cleavage
1,G19U G50U,0.509
2,U21A G50U,0.971
3,U20C C57U,0.194
4,U20C C57A,0.232
5,U20G G37U,0.182
6,U20A C27A,0.151
7,U20C U21G,0.211
8,U20C U21C,0.197
9,U20A C24G,0.0902
10,U20A U21A,0.219
11,U20A U21G,0.2
12,U20A C33U,0.2
13,U20A C33G,0.192
14,U20A C33A,0.166
15,G19A C39G,0.149
16,G19U C63U,0.318
17,G19U C63G,0.249
18,U20C G48C,0.229
19,U20A C35U,0.124
20,G19U A51C,0.432
21,C18U G28C,0.174
22,C18U G28U,0.206
23,U20A U69A,0.181
24,U20G G58C,0.099

row,Variant,self-cleavage
1,G19C A51G,0.182
2,G19C A51U,0.157
3,G19C U21G,0.161
4,U21A C66U,0.985
5,U20G G31U,0.128
6,U20G C34A,0.223
7,U20C U55G,0.203
8,U20C U55C,0.139
9,U21A A59U,0.891
10,U20A U49G,0.199
11,U20A U49C,0.275
12,C18U C66G,0.341
13,U20C U36G,0.116
14,U20C U36C,0.159
15,U20A A60U,0.117
16,C18U G19A,0.144
17,U20G C66G,0.15
18,U20G C66A,0.23
19,G19C U53C,0.0977
20,C18U U62G,0.494
21,U20G C32G,0.179
22,U21A G37C,0.217
23,U21A G37A,0.283
24,G19C C29U,0.112

row,Variant,self-cleavage
1,G19U A60C,0.18
2,G19U G56U,0.281
3,U20G U67A,0.223
4,U20G U67C,0.237
5,U20A A23G,0.041
6,U20A A23U,0.192
7,U20A A59U,0.106
8,C18U G41U,0.44
9,C18U G41A,0.331
10,C18U G41C,0.211
11,U20C G28U,0.208
12,G19U C66U,0.382
13,U20G U46G,0.189
14,U21A G28U,0.241
15,U20G G30U,0.191
16,U20G G30C,0.212
17,G19C C57U,0.146
18,U20A A42U,0.133
19,U20G G48C,0.224
20,G19A G48C,0.188
21,G19U G68A,0.793
22,U20C C27A,0.17
23,G19U U21A,0.31
24,G19U U21G,0.159

row,Variant,self-cleavage
1,G19A U21C,0.164
2,G19A U21G,0.14
3,G19A U21A,0.143
4,U20A G41U,0.126
5,U20A G41A,0.166
6,G19A G68C,0.209
7,G19A G68A,0.18
8,U21A A42U,0.941
9,G19U C35U,0.262
10,G19U C35A,0.119
11,G19C U62C,0.123
12,G19C U62A,0.107
13,G19A C33G,0.172
14,G19C G48A,0.189
15,G19C G48C,0.169
16,G19C G48U,0.141
17,G19A U64A,0.104
18,G19A U64G,0.12
19,G19U U49A,0.639
20,U20A C45A,0.142
21,U20A C45G,0.149
22,U21A C24U,0.69
23,G19C U43G,0.122
24,G19C U43C,0.134

row,Variant,self-cleavage
1,U20A U67A,0.12
2,U20C A51C,0.259
3,U20C A51U,0.172
4,U21A G58U,0.996
5,U21A G58C,0.938
6,G19A U26C,0.0939
7,G19A U26G,0.19
8,U20A G48C,0.117
9,U20A G48U,0.104
10,G19C A40C,0.0886
11,G19A C34G,0.181
12,U21A C29A,0.686
13,G19U C32U,0.55
14,G19C A59C,0.0891
15,G19C A59U,0.185
16,C18U U26A,0.669
17,U20A A40U,0.0825
18,U20A A40C,0.188
19,U20C C22A,0.201
20,G19C C33A,0.196
21,U20G U69A,0.264
22,G19U G47A,0.655
23,G19U G47C,0.677
24,U20C C32U,0.248

row,Variant,self-cleavage
1,U20C C32G,0.218
2,G19A C35U,0.188
3,G19A C35A,0.181
4,U20C U67C,0.131
5,C18U U67G,0.922
6,U20G C22U,0.141
7,G19A C29A,0.159
8,C18U G30A,0.282
9,U20C G68U,0.195
10,U20C G68C,0.211
11,U21A C34G,0.606
12,U20A U26A,0.0885
13,U20G U36G,0.16
14,G19A G50U,0.133
15,G19A U46A,0.155
16,U20A G47U,0.179
17,U20A G47C,0.261
18,G19U U20G,0.139
19,G19A C54G,0.159
20,G19C G47A,0.169
21,U20G G65C,0.166
22,U20C G30A,0.17
23,G19C G41U,0.129
24,G19C C22U,0.158

row,Variant,self-cleavage
1,U20G A59C,0.1
2,G19C C39G,0.162
3,G19C C39U,0.158
4,U20C A40C,0.215
5,U20C A40U,0.227
6,U20C U62A,0.133
7,U20C U62G,0.278
8,G19A G56U,0.155
9,U20A G50A,0.147
10,G19U A23G,0.262
11,G19U C45A,0.459
12,U20G C29U,0.137
13,U21A G30A,0.866
14,G19A U38G,0.156
15,G19C U46G,0.122
16,G19C U38C,0.135
17,G19C U38A,0.218
18,U20C C29G,0.165
19,U20G C33U,0.145
20,G19C C63G,0.204
21,G19C C63U,0.135
22,G19C C63A,0.144
23,U21A C32A,0.808
24,U21A C32U,0.993

row,Variant,self-cleavage
1,C18U G65U,0.245
2,C18U G48A,0.948
3,C18U G37U,0.198
4,C18U U20G,0.28
5,G19A A42C,0.13
6,G19A A42G,0.166
7,U21A G65A,0.862
8,U20A C39G,0.251
9,C18U G50C,0.803
10,C18U G50U,0.906
11,U20A U62G,0.0797
12,U20A U62C,0.148
13,G19A U67A,0.147
14,G19C G50C,0.148
15,C18U U64A,0.351
16,C18U U64C,0.383
17,U20G A51C,0.27
18,U20G A51U,0.219
19,U20C G56C,0.203
20,U20C G56U,0.127
21,U20G U44C,0.199
22,U20G U44A,0.271
23,G19C C35U,0.163
24,C18U U55G,0.39

row,Variant,self-cleavage
1,U20G U43G,0.153
2,G19A A60G,0.161
3,C18U U36G,0.19
4,G19C U49A,0.178
5,G19C A60U,0.128
6,G19C A60G,0.119
7,U20A C63U,0.16
8,G19C U61A,0.216
9,G19A G31A,0.17
10,U20A U36A,0.158
11,U20C G65U,0.18
12,U20C G65C,0.126
13,G19A A51C,0.161
14,G19A A51G,0.172
15,G19C C24U,0.204
16,G19C C24G,0.135
17,G19C C24A,0.183
18,G19A C32G,0.153
19,G19A C32U,0.216
20,G19U A59C,0.131
21,C18U G56U,0.578
22,C18U G56C,0.341
23,C18U G58C,0.852
24,U20G C27G,0.177

row,Variant,self-cleavage
1,U20G C27A,0.105
2,U20C G37C,0.0963
3,C18U U69A,0.944
4,U21A G31C,0.221
5,G19U G58C,0.443
6,G19U C24U,0.169
7,G19U C24A,0.153
8,G19U U53C,0.242
9,G19U U53A,0.273
10,G19U U53G,0.252
11,G19U U44C,0.232
12,U20G G28U,0.161
13,G19A U20A,0.145
14,G19A U20C,0.166
15,U20G U61A,0.207
16,G19A U53G,0.18
17,G19A U53C,0.15
18,C18U U43A,0.549
19,U20A U38C,0.107
20,U20A U38A,0.188
21,G19C U64A,0.176
22,G19C U64G,0.139
